In patent publication US20250115663A1 (CELLDEX THERAPEUTICS, published 2025):

T1: kappa-sCD40(1-94)-Flag mutant fragment D (multiple mutations of residues 33-36) (human, UniProt P25942 21-114)
T1 construct: The text says only multiple mutations of residues 33-36 (human to mouse differences); that mutant D carries exactly these is inferred; also called D (33-36); not shown: N-terminal human kappa light chain; C-terminal Flag tag
T1 chain: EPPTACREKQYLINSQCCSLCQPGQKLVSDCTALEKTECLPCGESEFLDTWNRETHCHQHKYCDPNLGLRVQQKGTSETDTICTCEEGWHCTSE

T2: kappa-sCD40(1-94)-Flag point mutant P2Q (human, UniProt P25942 21-114)
T2 construct: not shown: N-terminal human kappa light chain; C-terminal Flag tag
T2 chain: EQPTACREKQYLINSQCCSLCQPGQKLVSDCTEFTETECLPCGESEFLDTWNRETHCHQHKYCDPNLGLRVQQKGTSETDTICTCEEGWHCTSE


Assays:
[1] = target: T3, kappa-sCD40(1-94)-Flag mutant fragment B (multiple mutations of residues 13-15); experiment: ELISA, kappa-sCD40-Flag fusion captured on anti-Flag, anti-human IgG Fc-HRP
T3 construct: also called B (13-15)
Protocol: (§1) 1 μg/ml of purified kappa-sCD40-Flag fusion proteins or CHO cell supernatants containing the sCD40 fusion proteins were captured to microtiter plates that were pre-coated with 5 μg/ml mouse anti-Flag antibody (Sigma) in PBS and blocked with 5% bovine serum albumin in PBS. Following incubation with the CD40 antibody, the microplates were washed with PBS/Tween, and incubated with a goat anti-human IgG Fc polyclonal reagent conjugated to horseradish peroxidase. After washing, the plates were developed with HRP substrate, and analyzed at OD 450-650 using a microtiter plate reader. An ELISA with a goat anti-human IgG Fab2-HRP to measure kappa chain binding was carried out in parallel to validate the sCD40 fusion protein expression from different transfections.

[2] = target: T1, kappa-sCD40(1-94)-Flag mutant fragment …; experiment: as above
Protocol: as §1

[3] = target: T4, kappa-sCD40(1-94)-Flag mutant fragment A (multiple mutations of residues 1-5) (human, UniProt P25942 26-114); experiment: as above
T4 construct: The text says only multiple mutations of residues 1-5 (human to mouse differences); that mutant A carries exactly these is inferred; also called A (1-5); not shown: N-terminal human kappa light chain; C-terminal Flag tag
Protocol: as §1

[4] = target: T5, kappa-sCD40(1-94)-Flag mutant fragment C (multiple mutations of residues 25, 26, 28 and 30); experiment: as above
T5 construct: also called C (25, 26, 28, 30)
Protocol: as §1

[5] = target: T3, kappa-sCD40(1-94)-Flag mutant fragment …; experiment: as above; remark: listed apart in the source
[6] = target: T2, kappa-sCD40(1-94)-Flag point mutant P2Q; experiment: as above
[7] = target: T5, kappa-sCD40(1-94)-Flag mutant fragment …; experiment: as above; remark: listed apart in the source
[8] = target: T6, kappa-sCD40-Flag fusion protein, fragment amino acids 1-94 (human, UniProt P25942 21-114); experiment: ELISA, kappa-sCD40-Flag fusion (~1 ug/ml) captured on anti-Flag, anti-human IgG Fc-HRP
T6 construct: also called sCD40aa 1-94; not shown: N-terminal human kappa light chain; C-terminal Flag tag
Protocol: as §1

[9] = target: T7, kappa-sCD40-Flag fusion protein, fragment amino acids 84-173 (human, UniProt P25942 104-193); experiment: as above
T7 construct: not shown: N-terminal human kappa light chain; C-terminal Flag tag
T7 sequence (P25942 104-193): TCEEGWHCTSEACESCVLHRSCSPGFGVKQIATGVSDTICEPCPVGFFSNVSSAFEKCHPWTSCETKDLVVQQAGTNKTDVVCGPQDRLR
Protocol: as §1

[10] = target: T8, soluble human CD40-MsIgG2a (human, UniProt P25942); experiment: BLI (Octet QKe), antibody captured on anti-human Fc (AHC) biosensors, analyte soluble human CD40-MsIgG2a 3.13 to 0.098 nM, 25 C, 1:1 fit
T8 construct: soluble, fused to mouse IgG2a; also called recombinant human CD40-msG2a chimeric protein; CD40-MsIgG2a (Celldex, 60 kD by SDS-PAGE)
Protocol: Purified antibodies from Example 1 were captured on Anti-Human Fc Capture (AHC) biosensors (Fortebio Product No. 18-5060). Each antibody was prepared in dilution buffer (10mMPO4+150 mM NaCl+1 mg/mL BSA+0.5% Tween 20, pH 7.2) to 0.5 μg/mL and loaded on freshly hydrated AHC biosensors for 35-50 sec at 25° C. and 1000 rpm plate shake speed to achieve a target response of 0.2 nm. Low levels of ligand were captured to limit any effects of mass transport of analyte on kinetic parameters. For one assay, eight biosensors were loaded with the same antibody.
Binding was determined by exposing six of the antibody loaded biosensors to analyte: soluble human CD40-MsIgG2a (Celldex, 60 kD by SDS-PAGE). Affinity measurements were determined using 2-fold serial dilutions of analyte ranging from 3.13 to 0.098 nM in dilution buffer at 25° C. and 1000 rpm plate shake speed. Association of the antibody loaded biosensors in analyte wells was carried out for 1200 seconds, the biosensors were then moved to dilution buffer wells for 2.5 hrs (9000 sec) for dissociation measurements.
Fortebio's Data Analysis Software version 8.2.0.7 (Pall ForteBio, Menlo Park, CA) was used in each case to derive kinetic parameters from the concentration series of analyte in dilution buffer binding to captured antibody. The association and dissociation curves were fitted to a 1:1 binding model using the data analysis software according to the manufacturer's guidelines.

[11] = target: T9, recombinant human CD40-Fc (human, UniProt P25942 21-193); experiment: ELISA on coated recombinant human CD40-Fc, detection anti-human IgG F(ab')2-HRP, OD 450-650
T9 construct: also called soluble recombinant human CD40/Fc chimera from R&D Systems; not shown: The antibody Fc domain of the R&D Systems chimera and any linker to it
T9 sequence (P25942 21-193 limits assumed, form in doubt): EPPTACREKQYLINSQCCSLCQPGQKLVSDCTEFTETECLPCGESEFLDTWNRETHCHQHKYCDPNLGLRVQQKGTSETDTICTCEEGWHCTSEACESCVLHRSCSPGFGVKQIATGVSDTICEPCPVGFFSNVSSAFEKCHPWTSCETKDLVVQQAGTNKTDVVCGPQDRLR
Protocol: Microtiter plates were coated with recombinant human CD40-Fc in PBS, and then blocked with 5% bovine serum albumin in PBS. […] The plates were washed with PBS/Tween and then incubated with a goat-anti-human IgG F(ab′)2-specific polyclonal reagent conjugated to horseradish peroxidase at 37° C. After washing, the plates were developed with HRP substrate, and analyzed at OD 450-650 using a microtiter plate reader.

Binder | Average OD [1] [OD 450-650] | Average OD [2] [OD 450-650] | Average OD [3] [OD 450-650] | Average OD [4] [OD 450-650] | OD [5] [OD 450-650] | OD [6] [OD 450-650] | OD [7] [OD 450-650] | Average OD [8] [OD 450-650] | Average OD [9] [OD 450-650] | Kd [10] [nM] | kon [10] [M⁻¹ s⁻¹] | EC50 (read off the curve) [11] [nM]
anti-CD40 human monoclonal antibody 3C3 (antibody, human IgG2, kappa, V domains shown, Human IgG2, C-terminal lysine removed; also called anti-CD40 mAb 3C3; CD40 antibody 3C3) VH: QVQLVESGGGVVQPGRSLRLSCAGSGFIFSRYGMYWVRQAPGKGLEWVAVIWYDGSYKYYADSVKGRFTISRDNSKNTLYLQMNSLRAEDTAVYYCARESPWYYFDYWGQGTLVTVSS VL: DIQMTQSPSSLSASVGDRVTITCRASQGISNYLAWYQQKPGKVPKLLIYAASTLQSGVPSRFSGSGSGTDFTLTISSLQPEDVATYYCQKYKSAPFTFGPGTKVDIKR | 2.03 | 0.092 | 0.189 | 1.49 | 2.38 | 2.2 | 2.02 | 1.8 | 0.024 | 0.0107 | 813000 | ~0.4
anti-CD40 human monoclonal antibody 3G5 (antibody, human IgG2, V domains shown, Human IgG2) VH: QVQLVESGGGVVQPGKSLRLSCAASGFTFSSNGIHWVRQAPGKGLEWVAVIWSDGSNKFYADSVKGRFTISRDNSKNTLYLQMNSLRAEDTAVYYCARASGSGSYYNFFDYWGQGTLVTVSS VL: EIVMTQSPATLSVSPGERATLSCRASQSVRSNLAWYQQKPGQAPRLLIYGASTRATGIPARFSGSGSGTEFTLTINSLQSEDFAVYYCQQHNKWITFGQGTRLEIK | – | – | – | – | – | – | – | – | – | 0.0033 | – | ~0.4
